Source: patent publication US20240158537A1

Biological target: IL-7 receptor (IL-7R), heterodimer of IL-7R alpha (CD127) and common gamma chain (CD132), on primary human T cells (human) (UniProt P16871)
Experiment: cell-based or functional assay

IL-7 receptor (IL-7R), heterodimer of IL-7R alpha (CD127) and common gamma chain (CD132), on primary human T cells (human), sequence (P16871 21-459, chain 1 of 2): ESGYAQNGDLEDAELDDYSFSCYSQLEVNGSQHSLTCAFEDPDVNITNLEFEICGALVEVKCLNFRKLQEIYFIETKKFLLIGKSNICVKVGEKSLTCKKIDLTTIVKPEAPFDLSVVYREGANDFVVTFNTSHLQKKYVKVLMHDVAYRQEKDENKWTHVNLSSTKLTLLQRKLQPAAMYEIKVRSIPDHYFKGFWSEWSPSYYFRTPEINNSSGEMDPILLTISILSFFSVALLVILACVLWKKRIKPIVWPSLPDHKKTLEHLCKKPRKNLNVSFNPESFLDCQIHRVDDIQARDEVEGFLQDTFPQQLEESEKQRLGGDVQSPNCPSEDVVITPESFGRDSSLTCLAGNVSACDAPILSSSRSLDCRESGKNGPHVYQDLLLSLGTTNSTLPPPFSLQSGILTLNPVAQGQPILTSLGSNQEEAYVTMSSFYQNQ
IL-7 receptor (IL-7R), heterodimer of IL-7R alpha (CD127) and common gamma chain (CD132), on primary human T cells (human), sequence (P31785 23-369, chain 2 of 2, further chain): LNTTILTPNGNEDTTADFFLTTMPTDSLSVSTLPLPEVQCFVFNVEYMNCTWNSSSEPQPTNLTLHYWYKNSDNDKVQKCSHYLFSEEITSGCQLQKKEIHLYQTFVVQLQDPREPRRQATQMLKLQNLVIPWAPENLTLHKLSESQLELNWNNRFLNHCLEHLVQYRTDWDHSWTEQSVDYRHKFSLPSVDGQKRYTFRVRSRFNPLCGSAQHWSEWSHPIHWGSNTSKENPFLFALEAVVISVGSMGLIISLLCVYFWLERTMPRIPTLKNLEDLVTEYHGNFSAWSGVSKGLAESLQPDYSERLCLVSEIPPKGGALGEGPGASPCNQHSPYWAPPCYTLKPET

B1: WT IL-7 His (SEQ ID NO: 2), native IL-7 with His-tag (ligand)
chain: DCDIEGKDGKQYESVLMVSIDQLLDSMKEIGSNCLNNEFNFFKRHICDANKEGMFLFRAARKLRQFLKMNSTGDFDLHLLKVSEGTTILLNCTGQVKGRKPAALGEAQPTKSLEENKSLKEQKKLNDLCFLKRLLQEIKTCWNKILMGTKEHVDHHHHHH
**Q.** With B1 as the binder, how does the Avg EC50 (nM) (human pSTAT5), CD4 Memory read?
**A.** 0.001 nM

**Q.** And the Avg EC50 (nM) (human pSTAT5), CD4 Naive?
**A.** 0.001 nM

**Q.** And the Avg EC50 (nM) (human pSTAT5), CD4 Treg?
**A.** 0.033 nM

**Q.** And the Avg EC50 (nM) (human pSTAT5), CD8 Memory?
**A.** 0.006 nM

**Q.** And the Avg EC50 (nM) (human pSTAT5), CD8 Naive?
**A.** 0.002 nM
